Source: the supplement of paper PMC9170038

Test system: MS2 coat protein
Assay: apparent KD of MS2 coat protein; designed switch direction (-1 OFF switch, 1 ON switch): -1; higher = weaker reporter binding
In short: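 The buffer was Tris-HCl pH 7.5 with KCl, MgCl2, BSA, DTT, tRNA and Tween-20. In it, SNAP-549-labelled MS2 coat protein was titrated in doubling steps from 0.7 or 1.5 nM to 3 µM over chip-bound RNA switches transcribed by stalled E. coli RNA polymerase on Illumina chips. Apparent KD is the per-design median over clusters of curve fits to normalised fluorescence.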

[1] = input ligand: microRNA oligo, concentration not stated
[2] = Eterna round: R95, input ligand: microRNA oligo, concentration not stated
[3] = Eterna round: R95, input ligand: FMN 200 uM
[4] = Eterna round: R95, input ligand: none

“GUGGCGGAUGCGAACAUGAGGAUCACCCAUGUACAGUCCCUACAGGAUAUCCGCAGUGCCUAGCAGGAGAAGGGUAGGAGCACA [Eternabot solution 40] (Eterna round: R96, puzzle: Exclusion NG 3)” was tested, and the “apparent KD of MS2 coat protein” value (input ligand: FMN 200 uM) was 16 nM, the “apparent KD of MS2 coat protein” value [1] was 10.7 nM and the “apparent KD of MS2 coat protein” value (input ligand: none) was 17.9 nM.
In the case of “GUUCGACAUGAGGAUCACCCAUGUGAGGAUAUACGAUUAGCUGCUAGGUAGUUAGUAUGUAGAAGGUGCGUGAA [EX1 #72] (Eterna round: R97, puzzle: Exclusion 1)”, the “apparent KD of MS2 coat protein” value (input ligand: FMN 200 uM) was 44 nM and the “apparent KD of MS2 coat protein” value (input ligand: none) was 41.6 nM.
For “UGAUUGUGAGGAUAUUCUGAAUAAGGCACGGGCGUCUUAUUGAAGAAGGCACAUGAGGAUCACCCAUGUGGGUU [Eternabot (L2) Solution 90] (Eterna round: R97, puzzle: Exclusion 4)”, the “apparent KD of MS2 coat protein” value (input ligand: FMN 200 uM) was 248 nM and the “apparent KD of MS2 coat protein” value (input ligand: none) was 188 nM.
For “GGUGUGGCAGGAUAUACAUCGAAGGGUGCAAAGGGCUCGGCACAUGAGGAUCACCCAUGUAGAAGGGCCUACCA [Beated] (Eterna round: R96, puzzle: Exclusion 2)”, the “apparent KD of MS2 coat protein” value (input ligand: FMN 200 uM) was 25.3 nM, the “apparent KD of MS2 coat protein” value [1] was 13.6 nM and the “apparent KD of MS2 coat protein” value (input ligand: none) was 15.6 nM.
“ACGGGUAAGUAAGGAUAUCCAACAGGCUGAAUUCAACCUGAACAUGAGGAUCACCCAUGUGGGUGGGAGAAGGUACUCUCCCGC [Diladiaen] (Eterna round: R96, puzzle: Exclusion NG 2)” was tested, and the “apparent KD of MS2 coat protein” value (input ligand: FMN 200 uM) was 86.5 nM, the “apparent KD of MS2 coat protein” value [1] was 65.5 nM and the “apparent KD of MS2 coat protein” value (input ligand: none) was 93.7 nM.
For “CAGUACUGAGGAUAUACAUGAGGAUCACCCAUGUGUUCCAGCUAGGAAACUAGGAAAAGUAGAAGGCAGUACUG [salish99_ex3_r3_069] (puzzle: Exclusion 3)”, the “apparent KD of MS2 coat protein” value [2] was 23.1 nM.
With “UUAAUAUAUGUAGGAUAUGCGUGGCGAAGCUAUGCAGAAGGACAUGAGGAUCACCCAUGUUCCAGCGUCCGCGUACGGAUGCAA [JL Eng1 1.21 mod 11] (Eterna round: R96, puzzle: Exclusion NG 1)” the “apparent KD of MS2 coat protein” value (input ligand: FMN 200 uM) was 16 nM, the “apparent KD of MS2 coat protein” value [1] was 12.3 nM and the “apparent KD of MS2 coat protein” value (input ligand: none) was 13.3 nM.
“ACAUGUAAUGCAGGAUAUCGGACACAUGAGGAUCACCCAUGUGACCAGAGGAAUUGCUAAGAGUCUGAGAAGGGUAUGUACAUG [Ex NG2 #52] (Eterna round: R96, puzzle: Exclusion NG 2)” was tested, and the “apparent KD of MS2 coat protein” value (input ligand: FMN 200 uM) was 23.2 nM, the “apparent KD of MS2 coat protein” value [1] was 12.9 nM and the “apparent KD of MS2 coat protein” value (input ligand: none) was 19 nM.
For “GAGAUACAUGAGGAUCACCCAUGUGAGGAUAUGAGCACGCCGGUGACGGUGAUAAGAAUCAGAAGGCACAAUGG [Mat - Exclusion 1 - JL Mod - D31] (Eterna round: R97, puzzle: Exclusion 1)”, the “apparent KD of MS2 coat protein” value (input ligand: FMN 200 uM) was 338 nM and the “apparent KD of MS2 coat protein” value (input ligand: none) was 453 nM.
“AUACUCGUAGGAUAUGGCAAGCUGAACAUGAGGAUCACCCAUGUGUUCUACAGAUCUGGGUUAGAAGGACGUUAUU [Eternabot (L2) Solution 39] (Eterna round: R97, puzzle: Exclusion 5)” was tested, and the “apparent KD of MS2 coat protein” value (input ligand: FMN 200 uM) was 49.3 nM and the “apparent KD of MS2 coat protein” value (input ligand: none) was 59.7 nM.
With “UAAAAGCUAGGAUAUACAUGAGGAUCACCCAUGUACCGGCUUGGCCCUGGUCCUAAAUGUAGAAGGAGCACGCC [Zarebebi] (puzzle: Exclusion 3)” the “apparent KD of MS2 coat protein” value [2] was 14.2 nM.
For “ACAUGUAUUGCAGGAUAUGGGACACAUGAGGAUCACCCAUGUGACCACAUGUAAUGCCACGGGUCUCAGAAGGGUAUGUACAUG [Ex NG2 #43] (Eterna round: R96, puzzle: Exclusion NG 2)”, the “apparent KD of MS2 coat protein” value (input ligand: FMN 200 uM) was 117 nM, the “apparent KD of MS2 coat protein” value [1] was 22.9 nM and the “apparent KD of MS2 coat protein” value (input ligand: none) was 26.6 nM.
In the case of “ACAAGCUUAAUCAGUAAGAACAUGAGGAUCACCCAUGUAAAUGAAAGGACUAUUGGGUUAUUUAAAGCUCGUCUUAU [JR_STOV1_Sub014] (Eterna round: R97, puzzle: Sensor, turn-off variant 1)”, the “apparent KD of MS2 coat protein” value (input ligand: FMN 200 uM) was 52.1 nM and the “apparent KD of MS2 coat protein” value (input ligand: none) was 52.8 nM.
For “GGAAAAGCAGGAUAUACAUGAGGAUCACCCAUGUAGGCUCGCCGAGACGUGGAUGGACGUAGAAGGGCUAUUCC [Eternabot (L1) Solution 65] (Eterna round: R97, puzzle: Exclusion 3)”, the “apparent KD of MS2 coat protein” value (input ligand: FMN 200 uM) was 121 nM and the “apparent KD of MS2 coat protein” value (input ligand: none) was 28.9 nM.
In the case of “GGGCGUGAAGGAUAUACAUGAGGAUCACCCAUGUGGGAGGAGAGUGGUGAGGAGGCUGGUAGAAGGUCAGGAUG [JR_Exclusion3_Sub007] (puzzle: Exclusion 3)”, the “apparent KD of MS2 coat protein” value [2] was 42.6 nM.
With “GAGUUACAUGAGGAUCACCCAUGUGAGGAUAUGAGUCAGUCACGGUGACGUGGCUGACUCAGAAGGCACAAAGG [Mat - Exclusion 1 - JL Mod - D37] (Eterna round: R97, puzzle: Exclusion 1)” the “apparent KD of MS2 coat protein” value (input ligand: FMN 200 uM) was 186 nM and the “apparent KD of MS2 coat protein” value (input ligand: none) was 83.8 nM.
For “GAGUGACAUGAGGAUCACCCAUGUGAGGAUAUCGGACGGACCUAGUUAACAUCCGCCGCGAGAAGGCACAUCGG [Exclusion 1 V23] (puzzle: Exclusion 1)”, the “apparent KD of MS2 coat protein” value [2] was 136 nM.
With “ACAAGCUUUUUGUUCGUCUUAUAAUAAUAAAUAAAUAUAACAUGAGGAUCACCCAUGUUAAGAAGACAACCUCAUGU [Sesor Array 25 - Jieux - Sensor v3, turn-off variant 2] (puzzle: Sensor v3, turn-off variant 2)” the “apparent KD of MS2 coat protein” value [3] was 157 nM, the “apparent KD of MS2 coat protein” value [2] was 606 nM and the “apparent KD of MS2 coat protein” value [4] was 305 nM.
For “AGUUGUUGUUUCCGUUCUUACAUGAGGAUCACCCAUGUUUCUUGUCGUGCUCGCGUUGCUCGUCAGACUACCUGUUG [salish99_TOv1_r3_064] (puzzle: Sensor v3, turn-off variant 1)”, the “apparent KD of MS2 coat protein” value [3] was 87.1 nM, the “apparent KD of MS2 coat protein” value [2] was 106 nM and the “apparent KD of MS2 coat protein” value [4] was 138 nM.
For “CCAGCGAGUGUGAGGAUAUGCUGGUCCUUGGAUCAGCAGAAGGCACAUGAGGAUCACCCAUGUGAGGACGUUGG [JL bmx4 3.31] (puzzle: Brourd's mod of Exclusion 4)”, the “apparent KD of MS2 coat protein” value [2] was 23.9 nM.
For “UUAUCUACUGAGGAUAUUAUAUUACCCGACUGAUAAGAAGGCAGUACAUGAGGAUCACCCAUGUGGGUAGCCAU [Polaris11] (Eterna round: R97, puzzle: Exclusion 6)”, the “apparent KD of MS2 coat protein” value (input ligand: FMN 200 uM) was 23.2 nM and the “apparent KD of MS2 coat protein” value (input ligand: none) was 20.8 nM.
“GAAACCAGAGGAUAUGCGAAUAAAUAAAACUUUUUUUUUUAACAUGAGGAUCACCCAUGUAGAAGGCUGCAAAG [Ex2 #35] (Eterna round: R97, puzzle: Exclusion 2)” was tested, and the “apparent KD of MS2 coat protein” value (input ligand: FMN 200 uM) was 32 nM and the “apparent KD of MS2 coat protein” value (input ligand: none) was 31 nM.
For “AGCUGUGGCCGAGGAUAUGACAUGAGGAUCACCCAUGUACAUGAUUAGGCCUGGUAACAGGCUCGUCAGAAGGCGGUCUCAGCA [Eli eng2 - 009] (Eterna round: R96, puzzle: Exclusion NG 2)”, the “apparent KD of MS2 coat protein” value (input ligand: FMN 200 uM) was 46.2 nM, the “apparent KD of MS2 coat protein” value [1] was 13.6 nM and the “apparent KD of MS2 coat protein” value (input ligand: none) was 15.9 nM.
